The values below come from patent US20180250426A1.

The assay deals with CA1.CD2-P40 (CA1.CD2 PEGylated with P40) (rat) (UniProt P08921). Kind of assay: Western blot, CA1.CD2 PEGylated with P40. For orientation: In western blotting, separated proteins are transferred to a membrane and probed.
Sequence of CA1.CD2-P40 (CA1.CD2 PEGylated with P40) (rat) (P08921 23-121 limits assumed): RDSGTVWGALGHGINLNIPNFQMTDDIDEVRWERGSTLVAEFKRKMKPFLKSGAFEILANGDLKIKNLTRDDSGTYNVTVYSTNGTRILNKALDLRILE

As for OX34 antibody, the decrease of binding against unmodified CA1.CD2 was determined as 50%.
